Reference: JP2022109630A (dated 2022)

Experiments:
Test in all cases: ELISA, immobilised recombinant L7/L12 (10 ng/mL), antibody 10 ug/mL
[1] = target: T1, 黄色ブドウ球菌(SA)のリボソームタンパク質L7/L12 (黄色ブドウ球菌 (Staphylococcus aureus))
T1 construct: also called Staphylococcus aureus ribosomal protein L7/L12; SA L7/L12

[2] = target: T2, 緑膿菌(PA)のリボソームタンパク質L7/L12 (緑膿菌 (Pseudomonas aeruginosa))
T2 construct: also called Pseudomonas aeruginosa ribosomal protein L7/L12; PA L7/L12

[3] = target: T3, クレブシエラ・ニューモニエ(KP)のリボソームタンパク質L7/L12 (クレブシエラ・ニューモニエ (Klebsiella pneumoniae))
T3 construct: also called 肺炎桿菌; Klebsiella pneumoniae ribosomal protein L7/L12

[4] = target: T4, モラキセラ菌(MC)のリボソームタンパク質L7/L12 (モラキセラ菌 (Moraxella catarrhalis))
T4 construct: also called Moraxella catarrhalis ribosomal protein L7/L12; MC L7/L12

[5] = target: T5, 溶連菌(SPY)のリボソームタンパク質L7/L12 (溶連菌 (Streptococcus pyogenes))
T5 construct: also called Streptococcus pyogenes ribosomal protein L7/L12; SPY L7/L12

[6] = target: T6, 髄膜炎菌(NM)のリボソームタンパク質L7/L12 (髄膜炎菌 (Neisseria meningitidis))
T6 construct: also called Neisseria meningitidis ribosomal protein L7/L12; NM L7/L12

[7] = target: T7, 淋菌(NG)のリボソームタンパク質L7/L12 (淋菌 (Neisseria gonorrhoeae))
T7 construct: also called Neisseria gonorrhoeae ribosomal protein L7/L12; NG L7/L12

[8] = target: T8, クラミジア・トラコマチス(CT)のリボソームタンパク質L7/L12 (クラミジア・トラコマチス (Chlamydia trachomatis))
T8 construct: also called Chlamydia trachomatis ribosomal protein L7/L12; CT L7/L12

[9] = target: T9, サルモネラ菌(SE)のリボソームタンパク質L7/L12 (サルモネラ菌 (Salmonella enteritidis))
T9 construct: also called Salmonella enteritidis ribosomal protein L7/L12; SE L7/L12

[10] = target: T10, リステリア・モノサイトゲネス(LM)のリボソームタンパク質L7/L12 (リステリア・モノサイトゲネス (Listeria monocytogenes))
T10 construct: also called Listeria monocytogenes ribosomal protein L7/L12; LM L7/L12

[11] = target: T11, カンピロバクター・ジェジュニ(CJ)のリボソームタンパク質L7/L12 (カンピロバクター・ジェジュニ (Campylobacter jejuni))
T11 construct: also called Campylobacter jejuni ribosomal protein L7/L12; CJ L7/L12

[12] = target: T12, 肺炎球菌(SP)のリボソームタンパク質L7/L12 (肺炎球菌 (Streptococcus pneumoniae))
T12 construct: also called Streptococcus pneumoniae ribosomal protein L7/L12; SP L7/L12

[13] = target: T13, インフルエンザ菌(HI)のリボソームタンパク質L7/L12 (インフルエンザ菌 (Haemophilus influenzae))
T13 construct: also called Haemophilus influenzae ribosomal protein L7/L12; HI L7/L12

[14] = target: T14, 肺炎マイコプラズマ(MP)のリボソームタンパク質L7/L12 (肺炎マイコプラズマ (Mycoplasma pneumoniae))
T14 construct: also called Mycoplasma pneumoniae ribosomal protein L7/L12; MP L7/L12

[15] = target: T15, 百日咳菌(BP)のリボソームタンパク質L7/L12 (百日咳菌 (Bordetella pertussis))
T15 construct: also called Bordetella pertussis ribosomal protein L7/L12; BP L7/L12

[16] = target: T16, 肺炎クラミジア(CP)のリボソームタンパク質L7/L12 (肺炎クラミジア (Chlamydia pneumoniae))
T16 construct: also called Chlamydia pneumoniae ribosomal protein L7/L12; CP L7/L12

Measured: absorbance at 450 nm

B1: 汎用性抗体C(CP141A190.1) (antibody, V domains shown)
VH: QVQLQQPGAELVKPGASVKLSCKTSGYNFTSNWIHWVKQRPGQGLEWIGEINPSNGRANYNEKFKNKATLTVDKSSSTAFMHLSSLTSEDSAVYFCSRGDFDEGFTYWGQGTLVTVSA
VL: QIVLTQSPAIMSASLGERVTMTCTASSNVNSDYLHWYQQKPGSSPRLWIYTTSNLASGVPTRFSGNGSGTSYSLTISSMEAEDAATYYCHQYHRSPRTFGGGTKLEIK
notes: also called CP141A190.1; general-purpose antibody C
≥ 0.3 absorbance (450 nm): [1] | [2] | [3] | [4] | [5] | [6] | [7] | [8] | [9] | [10] | [11] | [12] | [13] | [14] | [15] | [16]

B2: 汎用性抗体A(PA51B2) (antibody, V domains shown)
VH: QVQLQQPGSVLVRPGASVKLSCKPSGYTFTGSWMHWTKQRPGQGLEWIGEIHPYSGNTNYNEKFRVKATLTVDTSSSTTYVDLSSLTSDDSAVYYCASGDFDAGFTYWGQGTLVTVSA
VL: DIVLTQSPASLAVSLGRRATISCKASQSVDYDGDSYMNWYQQKPGQPPKLLIYVASNLESGIPARFSGSGSGTDFTLNIHPVEEEDAATYYCQQTNEDPFTFGAGTKLELK
notes: also called PA51B2; general-purpose antibody A
≥ 0.3 absorbance (450 nm): [1] | [2] | [3] | [4] | [5] | [6] | [7] | [8] | [9] | [10] | [11] | [12] | [13] | [14] | [15] | [16]
